Experimental data: paper doi:10.1101/620195, “Modulation of DNA polymerase IV activity by UmuD and RecA* observed by single-molecule time-lapse microscopy” (bioRxiv, 2019)

Biological target: T1, E. coli RecA(E38K) protein (E. coli, UniProt P0A7G6 1-353, E38K)
T1 construct: RecA recombinase, E. coli, with the E38K mutation (allele recA730); In the assay it stood as a filament assembled with ATPγS on a biotinylated 60-mer dsDNA held on a streptavidin chip; also called recA730; RecA(E38K)-ATPγS filaments
T1 sequence (looked up): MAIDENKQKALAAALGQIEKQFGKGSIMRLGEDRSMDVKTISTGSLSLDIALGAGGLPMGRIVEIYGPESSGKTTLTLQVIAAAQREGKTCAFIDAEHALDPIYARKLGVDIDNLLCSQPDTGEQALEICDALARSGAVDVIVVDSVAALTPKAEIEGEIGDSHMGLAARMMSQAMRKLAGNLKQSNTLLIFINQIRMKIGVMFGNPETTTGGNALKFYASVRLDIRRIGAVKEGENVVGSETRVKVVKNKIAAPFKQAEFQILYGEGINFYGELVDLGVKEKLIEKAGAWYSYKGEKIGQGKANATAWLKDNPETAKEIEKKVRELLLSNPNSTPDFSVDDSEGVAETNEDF
Experiment: SPR; BIAcore T200, SA chip; RecA(E38K) filaments assembled on immobilised biotinylated 60-mer dsDNA; 0.65 uM pol IV injected for 220 s at 5 uL/min; 20 °C; 20 mM Tris-HCl pH 8.0, 10 mM KCl, 10 mM MgCl2, 0.005% surfactant P20, 0.5 mM dithiothreitol, 0.5 mM ATPγS
Settings: both partners purified

binding result: binds
B1: DNA polymerase IV (pol IV) (enzyme, E. coli, UniProt Q47155 1-351, looked up)
chain: MRKIIHVDMDCFFAAVEMRDNPALRDIPIAIGGSRERRGVISTANYPARKFGVRSAMPTGMALKLCPHLTLLPGRFDAYKEASNHIREIFSRYTSRIEPLSLDEAYLDVTDSVHCHGSATLIAQEIRQTIFNELQLTASAGVAPVKFLAKIASDMNKPNGQFVITPAEVPAFLQTLPLAKIPGVGKVSAAKLEAMGLRTCGDVQKCDLVMLLKRFGKFGRILWERSQGIDERDVNSERLRKSVGVERTMAEDIHHWSECEAIIERLYPELERRLAKVKPDLLIARQGVKLKFDDFQQTTQEHVWPRLNKADLIATARKTWDERRGGRGVRLVGLHVTLLDPQMERQLVLGL
notes: DNA polymerase IV, product of dinB, E. coli; Native pol IV, no tag, > 99% pure; also called DinB
